What was measured:
[1] = biological target: the molecule itself; assay: SEC-MALS, oligomeric state of the dominant species (D = dimer)
Procedure: (§1) FIG. 14. […] Samples were prepared in 20 mM Tris·HCl, 150 mM sodium chloride, pH 7.5.
(§2) To ascertain the oligomerisation state of dIG proteins, SEC-MALS was performed in a Dawn Helios™ II apparatus (Wyatt Technologies) coupled to a SEC Superdex™ 75 Increase 10/300 column. The column was equilibrated with PBS or buffer B at 25° C. and operated at a flow rate of 0.5 mL/min. A total volume of 100-165 μL of protein solution at 1-3.0 mg/mL was employed for each sample. Data processing and analysis proceeded with Astra 7 software (Wyatt Technologies), for which a typical dn/dc value for proteins (0.185 mL/g) was assumed.

[2] = biological target: the molecule itself; assay: SEC-MALS, oligomeric state of the dominant species (M = monomer, D = dimer)
Procedure: FIG. 12. Biochemical characterization of the dIG8 design. a, Far-ultraviolet circular dichroism spectra (25° C., 95° C.). b, Thermal denaturation monitored at 220 nm by circular dichroism. The design denatures at temperatures above 95° C. c, SEC-MALS analysis. The protein is monodispersed and has an estimated molecular weight of 16.6 kDa, which lies between that corresponding to the theoretical monomer (10.3 kDa) and dimer (20.6 kDa). The protein includes the thrombin cleavage site and the hexa-histidine purification tag, which adds 2.3 kDa to the design. d, Chemical denaturation with guanidine hydrochloride monitored at 220 nm by circular dichroism. […] All experiments were carried out with PBS buffer.
as §1, §2

[3] = biological target: the molecule itself; assay: SEC-MALS, self-association
[4] = biological target: the molecule itself; assay: SEC-MALS, self-association, PBS buffer
Procedure: FIG. 13. […] All experiments were carried out with PBS buffer.
as §2

B1: dIG7 (other)
chain: RMEVRVSNGRVEIENKSSQPGRVEVRFNGKRYEYTANPGERVEVEVSPEELKNLRVRLEYDGKTEETQYS
notes: De novo designed immunoglobulin-like domain; not shown: N-terminal thrombin-cleavable His6-tag encoded by pET-28b+
[1]
  binding result: binds

B2: dIG14 (other)
chain: MGRVEVRVEFEGDKMRVRLRNDSSTPVEVHIKVGDEKRTVTVNPGEEVEVTFSANDPHKFNRPQFTIEWGGQRQHFQHHHHHH
notes: De novo designed immunoglobulin-like domain; Built here as the crystallization construct (pET28*-dIG14); it may instead be the pET-28b+ form with an N-terminal thrombin-cleavable His6-tag; also called designed ImmunoGlobulin 14
[1]
  binding result: binds

B3: dIG8-CC (other)
chain: GHMRIEVRVDNGRVRVRNGTDRPCRVRVTAGGETREYTVNPGTELEVELSPEQQNNAEVEVECGNEKYRFQLG
modifications: C21 and C60 found both disulfide-linked and unbound in the crystals
notes: De novo designed immunoglobulin-like domain, double mutant of dIG8; Built as the untagged crystallization construct; also called dIG8-CC (V21C, V60C)
[2]
  binding result: binds

B4: dIG8 (other)
chain: RIEVRVDNGRVRVRNGTDRPVRVRVTAGGETREYTVNPGTELEVELSPEQQNNAEVEVEVGNEKYRFQLG
notes: De novo designed immunoglobulin-like domain; also called parental dIG8; not shown: N-terminal hexa-histidine tag and thrombin cleavage site from pET-28b+ (adds 2.3 kDa)
[2]
  binding result: binds

B5: dIG15 (other)
chain: RPKVQLELHGNKMRVRLRNDSSTPVEVHIKVGDEKRTVTVNPGEEVEVTFSTTDPRELKNATIQLHQGDQTVEYRVD
notes: as for B1
[1]
  binding result: binds

B6: dIG23 (other)
chain: DLEVRRKDGKFEFRNNSDKPATLEVEKDGQREEYRMNPGETIEVQAPPGQDVRFTVEMPGREYRYKLD
notes: as for B1
[1]
  binding result: binds

B7: dIG14-scdim (other)
chain: GRVEVRVEFEGDKMRVRLRNDSSTPVEVHIKVGDEKRTVTVNPGEEVEVTFSANDPHKFNRPQFTIEWGGGGRVEVRVEFEGDKMRVRLRNDSSTPVEVHIKVGDEKRTVTVNPGEEVEVTFSANDPHKFNRPQFTIEWG
notes: Two 6-stranded dIG14 domains (X1-X13) fused by a diglycine linker; also called single-chain dimer; dIG14-scdim designed with a GG linker
[3]
  binding result: no binding

B8: dIG22 (other)
chain: SIEVRVKGDRYEFRNNSDKPATLEVEKNGKREEYHMNPGESVEVRGPPGQDIRFEMTMDGTTYRYRLS
notes: as for B1
[1]
  binding result: binds

B9: dIG21 (other)
chain: SIEVRVKGDRYEFRNNSDKPATLEVEKNGKREEYHMNPGESVEVRGEPGQDIRFEMVMEGTTYRYRLS
notes: as for B1
[4]
  binding result: no binding

From patent US20230279055A1 (University of Washington, published 2023)
